Results from the RNAGym collection of RNA variant scans (doi:10.1093/molbev/msab373).

B1: Azoarcus group I ribozyme (parent)
chain: GUGCCUUGCGCCGGGAAACCACGCAAGGGAUGGUGUCAAAUUCGGCGAAACCUAAGCGCCCGCCCGGGCGUAUGGCAACGCCGAGCCAAGCUUCGGCGCCUGCGCCGAUGAAGGUGUAGAGACUAGACGGCACCCACCUAAGGCAAACGCUAUGGUGAAGGCAUAGUCCAGGGAGUGGCGAAAGUCACACAAACCGG

Variants of: B1
Assay: reverse-splicing fitness (ratio to wild type); higher = more active; in vitro selection; Mg2+ level not given
In short: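 An in vitro group I ribozyme library with randomized positions was T7-transcribed and gel-purified. In triplicate, 10 pmol RNA in EPPS pH 7.5 was reacted with 50 pmoles of a 30-nt RNA substrate for 1 h at 37 °C across several added MgCl2 levels (1–48 mM), then stopped with EDTA. Products were reverse transcribed from a substrate-complementary primer, PCR-amplified and sequenced (HiSeq 4000). Fitness is a variant's read proportion after selection over that before, normalised to wild type.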

| Variant | reverse-splicing fitness |
| --- | --- |
| GUGCCUUGCGCCGGGAAACCACGCAAGGGAUGGUGUCAAAUUCGGCGAAACCUAAGCGCCCGCCCGGGCGUAUGGCAACGCCGAGCCAAGCUUCGGCGCCUGCGCCGAUGGAGGUGUAGUGACUAGACGGCACCCACCUAAGGCAAACGGUAUGGUGAAGGCAUAGUCAAGGGAGCGGCGAAAGUCACACAAACCGG [A111G A120U C150G C169A U176C] | 0.00366 |
| GUGCCUUGCGCCGGGAAACCACGCAAGGGAUGGUGUCAAAUUCGGCGAAACCUAAGCGCCCGCCCGGGCGUAUGGCAACGCCGAGCCAAGCUUCGGCGCCUGCGCCGAUGGAGGUGUAGUGACUAGACGGCACCCACCUAAGGCAAACGGUAUGGUGAAGGCAUAGUCAAGGGAGGGGCGAAAGUCACACAAACCGG [A111G A120U C150G C169A U176G] | 0.00246 |
| GUGCCUUGCGCCGGGAAACCACGCAAGGGAUGGUGUCAAAUUCGGCGAAACCUAAGCGCCCGCCCGGGCGUAUGGCAACGCCGAGCCAAGCUUCGGCGCCUGCGCCGAUGGAGGUGUAGUGACUAGACGGCACCCACCUAAGGCAAACGGUAUGGUGAAGGCAUAGUCAAGGGAGAGGCGAAAGUCACACAAACCGG [A111G A120U C150G C169A U176A] | 0.00453 |
| GUGCCUUGCGCCGGGAAACCACGCAAGGGAUGGUGUCAAAUUCGGCGAAACCUAAGCGCCCGCCCGGGCGUAUGGCAACGCCGAGCCAAGCUUCGGCGCCUGCGCCGAUGGAGGUGUAGUGACUAGACGGCACCCACCUAAGGCAAACGAUAUGGUGAAGGCAUAGUCUAGGGAGAGGCGAAAGUCACACAAACCGG [A111G A120U C150A C169U U176A] | 0.0063 |
| GUGCCUUGCGCCGGGAAACCACGCAAGGGAUGGUGUCAAAUUCGGCGAAACCUAAGCGCCCGCCCGGGCGUAUGGCAACGCCGAGCCAAGCUUCGGCGCCUGCGCCGAUGGAGGUGUAGUGACUAGACGGCACCCACCUAAGGCAAACGAUAUGGUGAAGGCAUAGUCUAGGGAGGGGCGAAAGUCACACAAACCGG [A111G A120U C150A C169U U176G] | 0.00282 |
| GUGCCUUGCGCCGGGAAACCACGCAAGGGAUGGUGUCAAAUUCGGCGAAACCUAAGCGCCCGCCCGGGCGUAUGGCAACGCCGAGCCAAGCUUCGGCGCCUGCGCCGAUGGAGGUGUAGUGACUAGACGGCACCCACCUAAGGCAAACGAUAUGGUGAAGGCAUAGUCUAGGGAGCGGCGAAAGUCACACAAACCGG [A111G A120U C150A C169U U176C] | 0.00598 |
| GUGCCUUGCGCCGGGAAACCACGCAAGGGAUGGUGUCAAAUUCGGCGAAACCUAAGCGCCCGCCCGGGCGUAUGGCAACGCCGAGCCAAGCUUCGGCGCCUGCGCCGAUGGAGGUGUAGUGACUAGACGGCACCCACCUAAGGCAAACGAUAUGGUGAAGGCAUAGUCCAGGGAGCGGCGAAAGUCACACAAACCGG [A111G A120U C150A U176C] | 0.0464 |
| GUGCCUUGCGCCGGGAAACCACGCAAGGGAUGGUGUCAAAUUCGGCGAAACCUAAGCGCCCGCCCGGGCGUAUGGCAACGCCGAGCCAAGCUUCGGCGCCUGCGCCGAUGGAGGUGUAGUGACUAGACGGCACCCACCUAAGGCAAACGAUAUGGUGAAGGCAUAGUCCAGGGAGGGGCGAAAGUCACACAAACCGG [A111G A120U C150A U176G] | 0.0203 |
| GUGCCUUGCGCCGGGAAACCACGCAAGGGAUGGUGUCAAAUUCGGCGAAACCUAAGCGCCCGCCCGGGCGUAUGGCAACGCCGAGCCAAGCUUCGGCGCCUGCGCCGAUGGAGGUGUAGUGACUAGACGGCACCCACCUAAGGCAAACGAUAUGGUGAAGGCAUAGUCCAGGGAGAGGCGAAAGUCACACAAACCGG [A111G A120U C150A U176A] | 0.0485 |
| GUGCCUUGCGCCGGGAAACCACGCAAGGGAUGGUGUCAAAUUCGGCGAAACCUAAGCGCCCGCCCGGGCGUAUGGCAACGCCGAGCCAAGCUUCGGCGCCUGCGCCGAUGGAGGUGUAGUGACUAGACGGCACCCACCUAAGGCAAACGAUAUGGUGAAGGCAUAGUCUAGGGAGUGGCGAAAGUCACACAAACCGG [A111G A120U C150A C169U] | 0.0125 |
| GUGCCUUGCGCCGGGAAACCACGCAAGGGAUGGUGUCAAAUUCGGCGAAACCUAAGCGCCCGCCCGGGCGUAUGGCAACGCCGAGCCAAGCUUCGGCGCCUGCGCCGAUGGAGGUGUAGUGACUAGACGGCACCCACCUAAGGCAAACGAUAUGGUGAAGGCAUAGUCGAGGGAGUGGCGAAAGUCACACAAACCGG [A111G A120U C150A C169G] | 0.0107 |
| GUGCCUUGCGCCGGGAAACCACGCAAGGGAUGGUGUCAAAUUCGGCGAAACCUAAGCGCCCGCCCGGGCGUAUGGCAACGCCGAGCCAAGCUUCGGCGCCUGCGCCGAUGGAGGUGUAGUGACUAGACGGCACCCACCUAAGGCAAACGAUAUGGUGAAGGCAUAGUCAAGGGAGUGGCGAAAGUCACACAAACCGG [A111G A120U C150A C169A] | 0.00359 |
| GUGCCUUGCGCCGGGAAACCACGCAAGGGAUGGUGUCAAAUUCGGCGAAACCUAAGCGCCCGCCCGGGCGUAUGGCAACGCCGAGCCAAGCUUCGGCGCCUGCGCCGAUGGAGGUGUAGUGACUAGACGGCACCCACCUAAGGCAAACGAUAUGGUGAAGGCAUAGUCCAGGGAGUGGCGAAAGUCACACAAACCGG [A111G A120U C150A] | 0.112 |
| GUGCCUUGCGCCGGGAAACCACGCAAGGGAUGGUGUCAAAUUCGGCGAAACCUAAGCGCCCGCCCGGGCGUAUGGCAACGCCGAGCCAAGCUUCGGCGCCUGCGCCGAUGGAGGUGUAGUGACUAGACGGCACCCACCUAAGGCAAACGGUAUGGUGAAGGCAUAGUCCAGGGAGUGGCGAAAGUCACACAAACCGG [A111G A120U C150G] | 0.0688 |
| GUGCCUUGCGCCGGGAAACCACGCAAGGGAUGGUGUCAAAUUCGGCGAAACCUAAGCGCCCGCCCGGGCGUAUGGCAACGCCGAGCCAAGCUUCGGCGCCUGCGCCGAUGGAGGUGUAGUGACUAGACGGCACCCACCUAAGGCUAACGCUAUGGUGAAGGCAUAGUCUAGGGAGGGGCGAAAGUCACACAAACCGG [A111G A120U A145U C169U U176G] | 0.00399 |
